In the supplement of paper PMC10724198:
± gives the standard deviation of the averaged measurements.

Test system: Saccharomyces cerevisiae
Assay: protein stability index of tFT-peptide fusion (C-terminal peptide) (PSI (0-1 scale)); higher = more stable (slower turnover)
Conditions: temperature: 30 C
Method: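 MPS profiling in S. cerevisiae of the yeast C-terminome library: the last 12 aa of each annotated ORF are fused to the C-terminus of a sfGFP-mCherry timer, after a GGGS linker. Cells are FACS-sorted into 8 mCherry/sfGFP bins and deep-sequenced. PSI runs from 0 (unstable) to 1 (stable); wild type and das1Δ backgrounds, two technical replicates each.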

[1] = genetic background: das1 deletion

Sequence	protein stability index [1]	protein stability index (genetic background: wild type)
EKKYLNQSQNQA [BSD2 C-terminal 12 aa]	0.684 ± 0.035	0.692 ± 0.059
VFEISNKELFLT [YIL029W-A C-terminal 12 aa]	0.6922 ± 0.0023	0.452 ± 0.016
KLDDIIRARRSR [TGL3 C-terminal 12 aa]	0.7405 ± 0.0066	0.692 ± 0.034
CKSHAITNNITM [YER152C C-terminal 12 aa]	0.711 ± 0.026	0.687 ± 0.0091
GDDPYAEYFQDF [TPK2 C-terminal 12 aa]	0.735 ± 0.01	0.717 ± 0.039
RSRNKALVSVST [VPS63 C-terminal 12 aa]	0.6496 ± 0.0045	0.667 ± 0.049
IGSIKEDYLGAI [RPB7 C-terminal 12 aa]	0.692 ± 0.021	0.6737 ± 0.0027
TLHLVLRLRGGN [UBI4 C-terminal 12 aa]	0.665 ± 0.013	0.687 ± 0.067
VVPVLMGNMKVA [YEL073C C-terminal 12 aa]	0.69 ± 0.01	0.634 ± 0.053
EQDAILLKKHIS [NAT5 C-terminal 12 aa]	0.714 ± 0.033	0.3 ± 0.029
DDDDDDDDDEAD [RAD6 C-terminal 12 aa]	0.686 ± 0.015	0.667 ± 0.0086
ASRHSSTKKTST [CAB1 C-terminal 12 aa]	0.6986 ± 0.0058	0.692 ± 0.054
LNAVESLKEAST [TIM11 C-terminal 12 aa]	0.69 ± 0.0078	0.686 ± 0.029
WTNYLEKESEKD [RUD3 C-terminal 12 aa]	0.711 ± 0.04	0.693 ± 0.045
ITNEVNIYSPFF [YOR105W C-terminal 12 aa]	0.73841 ± 0.00012	0.7762 ± 0.0059
SKLNNGEIIVID [SRS2 C-terminal 12 aa]	0.685 ± 0.0081	0.702 ± 0.047
IHYFKSNLSSPS [RAM1 C-terminal 12 aa]	0.688 ± 0.022	0.724 ± 0.028
EPTLKLSNIYRQ [YBR174C C-terminal 12 aa]	0.7092 ± 0.0033	0.71982 ± 0.00048
DEMHYSDEDSSE [RRN11 C-terminal 12 aa]	0.699 ± 0.073	0.709 ± 0.028
GYEDGTIKLNKI [ASA1 C-terminal 12 aa]	0.697 ± 0.033	0.682 ± 0.018
FSSSRDDISFDI [DRS2 C-terminal 12 aa]	0.7 ± 0.023	0.664 ± 0.0014

Sequence	protein stability index [1]	protein stability index (genetic background: wild type)
PAAIKQAIAANA [TRX1 C-terminal 12 aa]	0.45 ± 0.014	0.489 ± 0.013
PDLPSTIKPLAD [BCH2 C-terminal 12 aa]	0.693 ± 0.018	0.693 ± 0.0094
QRTLVYKHKNDC [YLR285C-A C-terminal 12 aa]	0.686 ± 0.0091	0.657 ± 0.0068
SDVAKQLASFGY [RPL16B C-terminal 12 aa]	0.7021 ± 0.0051	0.6663 ± 0.00093
GRGLLGCRIQEL [NAS2 C-terminal 12 aa]	0.703 ± 0.012	0.681 ± 0.032
TEFGITKENLGE [TOG1 C-terminal 12 aa]	0.697 ± 0.03	0.691 ± 0.032
RIEKYSDDVIPK [RIM13 C-terminal 12 aa]	0.695 ± 0.018	0.722 ± 0.0089
RKNGYDIMTLHE [CLB1 C-terminal 12 aa]	0.719 ± 0.045	0.666 ± 0.027
SAAIGAQSGLYI [PBA1 C-terminal 12 aa]	0.671 ± 0.021	0.67 ± 0.0091
TSPRAINPKRSA [YDL114W C-terminal 12 aa]	0.695 ± 0.021	0.703 ± 0.02
KESSTSSEKQIA [THI72 C-terminal 12 aa]	0.67657 ± 0.00024	0.6804 ± 0.0025
LAIEIVLCLKAR [YLR255C C-terminal 12 aa]	0.331 ± 0.0034	0.355 ± 0.019
YLKNFFVKQKVV [ERP5 C-terminal 12 aa]	0.549 ± 0.0073	0.16 ± 0.026
TVETLLKLFTKS [SLD7 C-terminal 12 aa]	0.6879 ± 0.0025	0.69379 ± 0.00044
PAAVFTETLKHD [RPL4A C-terminal 12 aa]	0.7 ± 0.016	0.7 ± 0.022
MPPEHPFYSHYR [YNL193W C-terminal 12 aa]	0.7283 ± 0.0031	0.729 ± 0.01
AIRRENEWAEDR [SKP1 C-terminal 12 aa]	0.6841 ± 0.005	0.709 ± 0.0089
PSRVALVLALKE [GLC3 C-terminal 12 aa]	0.6875 ± 0.0016	0.747 ± 0.029
WKLLDDSELGWY [RGT1 C-terminal 12 aa]	0.836 ± 0.0089	0.804 ± 0.052
ILELVNEDYQSI [MRP17 C-terminal 12 aa]	0.738 ± 0.048	0.71 ± 0.039
FFTTCTIGCYDA [BUD7 C-terminal 12 aa]	0.6871 ± 0.0048	0.6861 ± 0.0047

Sequence	protein stability index [1]	protein stability index (genetic background: wild type)
DEEDEEDVKTEV [CAB3 C-terminal 12 aa]	0.6848 ± 0.0014	0.664 ± 0.016
SSLMVIHPLDDT [MID1 C-terminal 12 aa]	0.6918 ± 0.0012	0.695 ± 0.006
YNPGLSMDFLTA [BCD1 C-terminal 12 aa]	0.6899 ± 0.0018	0.714 ± 0.014
MRKHLRVSPFLF [YDL071C C-terminal 12 aa]	0.711 ± 0.016	0.329 ± 0.0068
HPCTSLTSVIVV [YGL072C C-terminal 12 aa]	0.36 ± 0.045	0.433 ± 0.051
KLLEESKGLLDV [YJR079W C-terminal 12 aa]	0.701 ± 0.023	0.699 ± 0.013
DVIDTIMSKQEP [UGA4 C-terminal 12 aa]	0.698 ± 0.02	0.6826 ± 0.0027
YNTTSITNSTSW [SRL1 C-terminal 12 aa]	0.711 ± 0.016	0.722 ± 0.09
TMVERRVSFTAQ [YER119C-A C-terminal 12 aa]	0.73 ± 0.031	0.711 ± 0.022
EEEKRHGIYLKC [GUP1 C-terminal 12 aa]	0.694 ± 0.029	0.647 ± 0.019
GALPTTDPLFQW [YJL043W C-terminal 12 aa]	0.7371 ± 0.0031	0.704 ± 0.0071
KGIKGFFHRIFD [YGR126W C-terminal 12 aa]	0.6963 ± 0.002	0.68 ± 0.018
DLVRTDQLCPNY [CQD1 C-terminal 12 aa]	0.681 ± 0.021	0.682 ± 0.035
GAPSLYSYLLCL [IRC2 C-terminal 12 aa]	0.684 ± 0.0082	0.487 ± 0.019
KISTHSNAPSPG [SMA1 C-terminal 12 aa]	0.669 ± 0.015	0.675 ± 0.022
VANTTNMNMNLM [DIA1 C-terminal 12 aa]	0.6954 ± 0.0035	0.737 ± 0.027
FVLKCIKDMYAK [IRC25 C-terminal 12 aa]	0.682 ± 0.018	0.681 ± 0.017
TYYRRRATANSL [YMR155W C-terminal 12 aa]	0.6958 ± 0.0045	0.676 ± 0.011
QRTQAICIDKKW [YJL135W C-terminal 12 aa]	0.697 ± 0.014	0.6986 ± 0.0032
EIMLGKNLLITS [YNL109W C-terminal 12 aa]	0.619 ± 0.0087	0.503 ± 0.028
LSIMKTLVPWTL [YML054C-A C-terminal 12 aa]	0.712 ± 0.024	0.6528 ± 0.0022

Sequence	protein stability index [1]	protein stability index (genetic background: wild type)
EPKEIVDGKVLK [CAM1 C-terminal 12 aa]	0.692 ± 0.021	0.708 ± 0.034
LDVVKSRGSKHS [HSU1 C-terminal 12 aa]	0.7099 ± 0.003	0.7 ± 0.062
IFHQLQKKINRS [IWR1 C-terminal 12 aa]	0.703 ± 0.0083	0.6656 ± 0.0027
GLQVMNEMKQRW [ECM25 C-terminal 12 aa]	0.7091 ± 0.0069	0.724 ± 0.053
LQVILMSLGAIA [MDM31 C-terminal 12 aa]	0.446 ± 0.014	0.508 ± 0.0098
KSKFQERLQQGL [RET3 C-terminal 12 aa]	0.701 ± 0.0071	0.6467 ± 0.0052
AFTAKWKAENKQ [FYV4 C-terminal 12 aa]	0.691 ± 0.017	0.6671 ± 0.0054
MISGPSSSSSAP [CYC3 C-terminal 12 aa]	0.719 ± 0.012	0.741 ± 0.081
GSNNRGYTLIDL [ENT1 C-terminal 12 aa]	0.698 ± 0.015	0.736 ± 0.029
VNQKQPPPQSYV [YEL067C C-terminal 12 aa]	0.7165 ± 0.00072	0.7048 ± 0.00045
KKPLFKRKVLQI [YNL205C C-terminal 12 aa]	0.6883 ± 0.0025	0.422 ± 0.011
DALHKMDKNVLE [YOL029C C-terminal 12 aa]	0.696 ± 0.028	0.728 ± 0.076
EYSWEKPKKLEF [SAM2 C-terminal 12 aa]	0.7075 ± 0.0037	0.698 ± 0.035
EGKWEPAGEVHQ [SEC13 C-terminal 12 aa]	0.706 ± 0.012	0.7167 ± 0.0048
DEGRNTSSVVNK [MAL31 C-terminal 12 aa]	0.688 ± 0.0089	0.7419 ± 0.0019
VVDLIMEYLQDT [YDL057W C-terminal 12 aa]	0.699 ± 0.013	0.741 ± 0.078
EVDIGLYNCADY [ADE4 C-terminal 12 aa]	0.714 ± 0.05	0.667 ± 0.02
NLRADSFLQYPL [YDR029W C-terminal 12 aa]	0.704 ± 0.0075	0.714 ± 0.021
KVPPRKDGIKFR [RTS2 C-terminal 12 aa]	0.728 ± 0.0069	0.695 ± 0.018
